Experiment: frontal affinity chromatography (FAC), association constant to PA sugar chains without L-fucose
Format: binding
Details: 25 degrees C.
Summary of the method: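 Lectin coupled via primary amines to NHS-activated sepharose in a miniature column, run in TBS (pH 7.4) at 0.125 ml/min and 25 degrees C. PA sugar chains (3.75 nM or 7.5 nM) applied in excess, with elution monitored by fluorescence (ex 310/em 380 nm). Ka calculated from front-end delay (V−Vo) versus PA rhamnose and effective ligand amount (Bt).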

Measured: association constant Ka

B1: Aleuria aurantia lectin (protein)
chain: PTEFLYTSKIAAISWAATGGRQQRVYFQDLNGKIREAQRGGDNPWTGGSSQNVIGEAKLFSPLAAVTWKSAQGIQIRVYCVNKDNILSEFVYDGSKWITGQLGSVGVKVGSNSKLAALQWGGSESAPPNIRVYYQKSNGSGSSIHEYVWSGKWTAGASFGSTVPGTGIGATAIGPGRLRIYYQATDNKIREHCWDSNSWYVGGFSASASAGVSIAAISWGSTPNIRVYWQKGREELYEAAYGGSWNTPGQIKDASRPTPSLPDTFIAANSSGNIDISVFFQASGVSLQQWQWISGKGWSIGAVVPTGTPAGW
<1000 M⁻¹: Sugar chain No. 001 | Sugar chain No. 002 | Sugar chain No. 003 | Sugar chain No. 004 | Sugar chain No. 005 | Sugar chain No. 006 | Sugar chain No. 007 | Sugar chain No. 008 | Sugar chain No. 009 | Sugar chain No. 010 | Sugar chain No. 011 | Sugar chain No. 012 | Sugar chain No. 013 | Sugar chain No. 014 | Sugar chain No. 101 | Sugar chain No. 103 | Sugar chain No. 104 | Sugar chain No. 105 | Sugar chain No. 107 | Sugar chain No. 108 | Sugar chain No. 301 | Sugar chain No. 304 | Sugar chain No. 305 | Sugar chain No. 307 | Sugar chain No. 308 | Sugar chain No. 313 | Sugar chain No. 314 | Sugar chain No. 323 | Sugar chain No. 501 | Sugar chain No. 502 | Sugar chain No. 503 | Sugar chain No. 504 | Sugar chain No. 701 | Sugar chain No. 702 | Sugar chain No. 703 | Sugar chain No. 704 | Sugar chain No. 705 | Sugar chain No. 706 | Sugar chain No. 707 | Sugar chain No. 708 | Sugar chain No. 709 | Sugar chain No. 710 | Sugar chain No. 711 | Sugar chain No. 712 | Sugar chain No. 713 | Sugar chain No. 715 | Sugar chain No. 716 | Sugar chain No. 717 | Sugar chain No. 724 | Sugar chain No. 725 | Sugar chain No. 728 (as listed in Table 7) | Sugar chain No. 732 | Sugar chain No. 733 | Sugar chain No. 734 | Sugar chain No. 735 | Sugar chain No. 736 | Sugar chain No. 737 | Sugar chain No. 738 | Sugar chain No. 901 | Sugar chain No. 902 | Sugar chain No. 903 | Sugar chain No. 905 | Sugar chain No. 906 | Sugar chain No. 907
